B1: vIRF4^153–256 (domain or fragment)
chain: SDTREQSYEEAGAAAPAPPKAPSGLRGRPRKSNRYYNVGDITTEQKAACSVWIPVNEGASTSGMGSSGTRQVTQASSFTWRVPGDPPAPSTLTGPSDPHSSGAG
B2: vIRF4^153–216 (domain or fragment)
chain: SDTREQSYEEAGAAAPAPPKAPSGLRGRPRKSNRYYNVGDITTEQKAACSVWIPVNEGASTSGM
B3: vIRF4^153–256/Δ202–216 (domain or fragment)
chain: SDTREQSYEEAGAAAPAPPKAPSGLRGRPRKSNRYYNVGDITTEQKAACGSSGTRQVTQASSFTWRVPGDPPAPSTLTGPSDPHSSGAG
B4: vIRF4^153–256/Δ202–216/Δ237–256 (domain or fragment)
chain: SDTREQSYEEAGAAAPAPPKAPSGLRGRPRKSNRYYNVGDITTEQKAACGSSGTRQVTQASSFTWRVPG

target: HAUSP^62–205 (HAUSP TRAF domain) (UniProt Q93009 62-205); test: ITC
Sequence (Q93009 62-205): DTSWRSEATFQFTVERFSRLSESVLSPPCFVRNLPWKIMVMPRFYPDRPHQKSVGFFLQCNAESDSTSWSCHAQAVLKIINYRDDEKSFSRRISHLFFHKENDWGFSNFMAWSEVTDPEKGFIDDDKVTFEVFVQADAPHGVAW

Question: How did the Kd turn out when B1 was run?
Answer: 0.076 µM

Question: EQGPADDPGEGPSTG [EBNA1^435–449 peptide] was tested. Which Kd did it give?
Answer: 0.48 µM

Question: Which results are given for DLVQELQEEKPSSSHL (peptide, UniProt Q00987 137-152, looked up) [MDM2^137–152 peptide]?
Answer: Ka: 91000 M⁻¹; Kd: 11.1 µM

Question: Which Kd does the source give for B2 here?
Answer: 0.54 µM

Question: With B3 as the binder, how does the Kd read?
Answer: 3.45 µM

Question: With B4 as the binder, how does the Kd read?
Answer: 4.03 µM
